Test results published in article PMC6154995, “Heme-dependent Inactivation of 5-Aminolevulinate Synthase from Caulobacter crescentus” (Scientific Reports, 2018).

Test system: CC(C)(COP(=O)(O)OP(=O)(O)OC[C@H]1O[C@@H](n2cnc3c(N)ncnc32)[C@H](O)[C@@H]1OP(=O)(O)O)[C@@H](O)C(=O)NCCC(=O)NCCSC(=O)CCC(=O)O
Assay: purified protein
Conditions: PLP

## 5-aminolevulinate synthase (cALAS) (Caulobacter vibrioides CB15)
  Km: 2.42 ± 0.32 µM
